# From the domain aggregation screens of Martell et al. (2025)
# Test: soluble fraction after stress (log2 fold change); higher = more stays soluble; pooled small domains, quantitative proteomics
# Details: stress: pH 4
# How it was run: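 Aggregation propensity is estimated from the fold change in each domain's soluble amount after acid stress. Pooled small-domain libraries were stressed at pH 4, and higher log2 values mean more stayed soluble.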
row,Sequence,soluble fraction (log2)
1,HMGADGIPGKNGENGETSYVHFAYATSADGKTGFSTTDTVGKTYMGQYADFEKADSEDPTKYRWGKFQGP,≥ 0.43
2,HMGAFAIHTASELSAGMRIRHERFGPGVITGIDTANPASGARIQVDFDNGTSKTLLLSYAKFQI,0.22
3,HMGAGKVVDGVTYDFVFDVDVADGQPPLRLPYNRGEDVYQAAERFILRNELPATYREQIVNFIVQNTPG,-1.79
4,HMGAISGEQREFYTVFRGHLNSHVGEFKVEDIENLLMKAKTEVPDLLEEEFLKMGEAILNRYRN,-0.966
5,HMGAKEHLAGETLRMAVELLSEKQGIPAEQALIRFISSPVYDALYDLDTGMWTQGPTRLLEAFEALE,-1.69
6,HMGALARLLASVEQELGVTRDRMTRTQKQEAVTLLNEWGAFTLRKSVEDVAEALGVSRFTVYNYLERAEA,-0.866
7,HMGALSLDMLFDRFDALQEQSMGDKTEGGQELRGMIRTFIEQEKLDIRVTRTTTNAALLEMIEKEMQG,0.0204
8,HMGASALTEREREVLRLLEGGGSDKRIARQLAISEHGVRYHLKSIYKKLGVHDRVSAIAAGRRLAS,≥ 0.43
9,HMGASTQLVEIKNAYENGEWQNVIDLAGKLHEKYNGSEEDKEAQEMAKNSQSKLDEAAAAKAAEEA,0.184
10,HMGASYSQFLDQVDSGNVQKVAFGGDMRGGTSQLTYTTRGGQSSTITAPFDRDLINVLRTKNVEIVQEEP,0.0587
11,HMGATFITSSKDNAINIRQAAGTDSKVIETIKNGHILESSEKSGEWYKVTYYDSDIKKTFTGYIHNSQLK,-0.162
12,HMGAVQFAEQKIHIGSRWIGKKISEFSAESDAFVILIKRGSEVVIPRGPTDIVENDVLVIHVPD,-1.8
13,HMGAVVSPMPGVILDIKVKEGDSVSEGQTVIILEAMKMENEIVSEFTGTVSAIRVKKGDTVDTDAVLVEI,-1.04
14,HMGAYPENSLLKERGQSAVYLIQENRKRLFFNAEAFLINGYNWKDIQVVDDLSKILTGKVIYAK,-1.48
15,HMGDAATVFRDHYNINSAAQAQAALDRKEALWEQPNPWRDSDNREVFDWAAQTVKDRFDSGKYKPK,-0.107
16,HMGDDVRKNILDVLSKFERVDITDLDSLELVRFYLEIEDIFDIEIKENDFYRLKSVDSIVDYIRNKSFF,-1.64
17,HMGDIQFMEYRINHSSGWIGKNISDFAAVSKNLVILIKRGQDVVIPRGPTAIMEDDVLVLHA,-1.15
18,HMGDITALMPGKVIQIIVKEGQEIKVGDPLIVIESMKMENTISSEVNGTIKSINIQIDDNVQFDQVLFTV,-1.03
19,HMGDITIPDLQGMSFDQAREKLKALGLSIGKISYTSDTSKDDGVVISQGLQAGGKASKGATVDITINET,-0.177
20,HMGDLEEAVKDFSEAIRLNDSWAEAYANRAVVYAEQGDAAQSDQDAEKARLLGVDQNRLNEMLNAVNS,-0.21
21,HMGDLKALMPGKVTQVLVSGGQKVKVGEPVLLMESMKMEQTIVATKDGDISEILVSEGDTVEVGKIMIKI,0.0925
22,HMGDLTVPDLSGLTVDQAKQRLKDMGLVLGKITTQEDSSKPDGVIISQSPSADGKINKGQLVDVVVNKLS,0.206
23,HMGDTHKVPGVKGVNVEQAMDMLSRLDLKAVVIDSVYVKDKKLGTVIEQNPVEGSVVKPGRPIYLVVNSRS,-0.0241
24,HMGDTISVPAVRTLAYNKAMDILNAEGLKGIVADSVYDNHTAPGTVIEQNPKAGTIVKEGREVFLTIHA,-0.0483
25,HMGDWITGTVTRIADNGWGTFQPENAHNTVSIPPKMVADNQLKEADSIKIIAEPSPDGTKTFIKAISRE,0.214

row,Sequence,soluble fraction (log2)
1,HMGEDSEPVQVPDVTGQPLWEARRTLSSMGLKVLDDGGSGSVTAQMPSAGATLRNGGQMMLYTYDEALPE,0.033
2,HMGEEIRTWTDAQGRKIEARMSMLDGDQVLLELKDGRKIPYPLAKLSADDAHYARHFASASASD,-0.00959
3,HMGEFVQLKNRTGSVIEAKILNYQNGKVKLQRKDGVIFVVPISIFDRMSSSIIENKAKEMDSF,0.255
4,HMGEIHAQIPGLVSHLFVKEGNTVQVEQKLFILEAMKMENEIDSPIQGTVKRIHIATGSKVEKGDLIMEIS,-0.117
5,HMGEKFTFGQIAKAKAYAKTYANDMTSAVKNIEAIATGLSKHPEVADTLKKANENQELNRITKLAG,0.369
6,HMGEKPTEITLSNAISVQELAEKLYVSETDIIRTLFLDGIIVNINQVLDLETAVKVGDQLGVTITIVE,-1.8
7,HMGEKTVPNVIGQKLATAKQLLEKEGLTVGSTSYNKNQADKDTVLSTDPAPGSHLSEGAKVNLTLSSGA,0.0205
8,HMGEKVIAVSGGFDPIHVGHLRMMQDAAQHGRLVVIVNSDEWLLKKKGYVFMPWEERAELIGAYDFVDE,-0.6
9,HMGELDPKIIAQINTFLQGITKLIEHPGNKDAKKTALGALHKLTFDQNITANFGKQLGQLDQVIQSSEET,-0.127
10,HMGELGPGSRGQAVRALQERLMALGFPLARFGADGIFGRETTGALRAFQHVAGLSPTGLGDHETLKWLGII,-0.351
11,HMGELTNALATLSERERDVARLVAQGLDNRQIAAQLFLSEGTVRNRISDILDKLALTNRTQLAIAWLHAE,-0.615
12,HMGEPTLTIRVVSYNPQSGEMVVVARDPLSGRYALATLNVRTGAGQMIGPQGELLPIENFALGS,-0.692
13,HMGEQVAVPDVTKKSVREVNNILTSAGLRLQIEGSGISVRQDPPADTMVAPDTVVTVSFEPP,-0.0261
14,HMGEQVFSRKDLAINGNDLKAVFGWPPGPKYREALDQLFHWVLEDPARNRRETLLAYLHSLYD,-0.774
15,HMGESEKTLELVSQKDALVDEAFFFVRFQALLESNKTKGAQDLLDQSNHLSAAKLLQANAYLDIV,0.038
16,HMGESFEELAREISDDTGSKTEGGETGLFPRGVMAPQFEEAAFLLKVGDISEPIRTKFGYHIIKLKEIKP,-0.0823
17,HMGESVVVPDLRGKTLEEARAILKKVDLDYEINDSTYSKTAVPGTIRDIVPAPGSHVKAGRILFVSING,0.0395
18,HMGETISVPAVRSLAYDRAVDMLTAEGLKGIVADSVYDNRTQPGTVIEQNPKAGTIVKEGREVYLTINA,0.0278
19,HMGFAPEAAREEVAQLIGQRGRAVTVLRPSGQVEIAGRRFEATVEVGAVDAGDTIVVRGQTAFALLVEKAD,0.0812
20,HMGFKLQRYTTFVVERLKKYQDTPAAQMHDLLKEHYPDFPAVSPKTVYNYVMKIRQEHGLPAV,≥ 0.43
21,HMGFSERLAQAMSHAGYTQGGLAKAVGMAQSSVNKLLNNANSSRKTVEIASVLGVRPEWLSTGEGDML,0.188
22,HMGFSKGKRDLIRMIKLAIRELADDNGRAQIEDVITRLVQEGHSRDEIRLQIDMFLRQGEAMEPKQGIIKL,-0.891
23,HMGFSLEQFGTDPDLKKIVENAFERIITASEGRIFKSDFSSNNSALPLEIFSFLIAVILLKLSGMN,-0.489
24,HMGFVATRSRKFLPFSEARAITRGLGFSNQKDYKEWIKGNGNELLLPFNPWRTYGDSGWKGWKDFLGTDKA,0.0101
25,HMGFYDLFINLADKVGSLADVTQILAEARINLVNVHILEIREEIDGIAQLTFSSEKDRQKALELLKTKYK,-1.52

row,Sequence,soluble fraction (log2)
1,HMGGDFVEHLKDLASEAPVIRLVNTIIGRVIDLRASDIHLEPFDDGLHVRYRVDGVIHPGELVPPRLS,-0.249
2,HMGGEGQIEIREREGIPAEAWVDGVMRGQTPLRVEHVSIGTRRVELRAEGRPPVAADVLVRPTVTALVELS,-0.192
3,HMGGEHPIPEDWAVNEANYEHGAKFYGYTRAHVDAEAQAFRDQYAANGKKYVDWDAHFRTFMRWQNERRYG,-0.416
4,HMGGEPVSARVPDTLHGARLDATAAALFPDFSRSRLAEWIKAGRLRRNDQPAKPRDKVAVDDHLLLIPEY,-0.431
5,HMGGFSVTAEAFDGTPEVGKTVGFTAGSTKIKVEDTKGDATFGTILEKETVGFGEGKYTYFYIGL,-0.276
6,HMGGKAITGGEGEIIIRADKAETVAIYGIDGRLVHRVSTEAGDTKRVSVPAGIYIVKGAKVVV,0.42
7,HMGGKTAVVTGSLVNVRKGPGTGNALVGQVARGDELPVLGQDGDWYQIKLANGSNGWVAGWLVSLKDAVP,-0.112
8,HMGGLIDQSIQEIIDKYSVPGKKIQKAQRLKIVAEMHTKGIFKMRGGVQQAAQALGVTRYTVYNDLEVMN,-0.259
9,HMGGLLSVIQKKAINNVKDRYSENAIKSMTKVQLHDLIKAETSRLLDPANAKETPEYQAFLEE,0.116
10,HMGGLSAEQKNGIQSVLKNFDPKNLTSADAKSITSEFKKLGVQPGKDLETTMAASGFDAKEVGRLAF,0.177
11,HMGGPRDVPYSTFLIEVEKGQVAEVTIQDHKITGTYKNSNEPFITNAPDDPDLVSRLIKYGVGVQAKPPE,0.0182
12,HMGGREEAGTDIARLLGYINDIHGEELIAKLEYYQKMLGSENFAVLMSRLPDGQKKELREQNLYSEYV,-0.298
13,HMGGRRHANMSREEEAAFLAPFFEKAAQGGILVVREIRQALDAHLGRTVPLSTVYNLLHRHNWRKL,0.379
14,HMGGRTITVGISENMTVKDIAQMLEEKGLIEDARLFVVQELLSAYHKEIKPGIYDLSTDMTAAQMLEIMS,-1.32
15,HMGGSIDITTAPPGAKIYLDADYYGKTPKRLENISAGTYRLHLLHPEKGEVYRSVTLNEKNGTLKIDENLN,0.0705
16,HMGGTATDYYNQGRTAYDVGDYNGALMNFQEAVRLDPRYGEAYYGLGKAYEALNMQNQALDAYLSAI,-1.46
17,HMGGVSTDKPLNWDADGTSKLTQEQIDYLRSTYDLSDMSKQDYYDLMADLTNMNAISIKDVISQYVK,-0.462
18,HMGGYVVVGDKDGFWSVVSTPVSKAKAEELLKDTTFPKGEKGKIVSVAEAMSHKKVIGKEYLESGGT,0.0926
19,HMGHASPGNREALQFALERHQARAAEFAEKAGLSIANASTKFKQLWEQGFLMRNESVADSGGVEFLYQR,-0.0683
20,HMGHEISLNNSRFLKLLNKTKISISNDDTRHYLNGIFLHLTEAHGRQFLTGVATDSHRLSSSSLEID,-0.226
21,HMGHRQRRARARNRSMLEDIPGLGPKRRQQLLRQFGGLPQLMRAGVAELSQVPGISDSLARKIHAELHPES,-1.87
22,HMGHYGQMTRDLIEKAKTYEEGEEKAALVLTIANLMKRHYLTWNRATVENTLIAEQLKEMSEGALTLPEDV,-0.962
23,HMGIAEGSSVFVRVLAAEDGGRYTVSFAGRRFSVLSRQALGIGSAFRADVKVEKGQVLLVPR,-0.348
24,HMGIAERKEKQKLEIRNAILEASRKLIVEEGFEKVTMRKIADLIEYSPTTVYLYFKDKNEILFHLHQ,-0.798
25,HMGIDVSAFSDTALEVLRLQAAGYTTREIAQQLHITQRTVKYHASENYRKLDARNLVDAVQIAQSLHI,-0.602
